Measured values: US20250282892A1 (published 2025)

Columns and labels:
[1] = target: EGFR His tag (UniProt P00533 25-645); assay: ELISA
[2] = target: HER3 His tag (UniProt P21860 20-643); assay: ELISA
[3] = target: HER3 tag free antigen (immobilized) (UniProt P21860 20-643); assay: ELISA; dual-binding sandwich: immobilized HER3-Fc + EGFR-His
[4] = target: EGFR tag free antigen (immobilized) (UniProt P00533 25-645); assay: ELISA; dual-binding sandwich: immobilized EGFR-Fc + HER3-His

Binder | EC50 [1] [nM] | EC50 [2] [nM] | EC50 [3] [nM] | EC50 [4] [nM]
BMX003-011 (humanized Patri-Cetu-Fc modified) (bispecific antibody) heavy: not shown light 1: not shown light 2: EIVLTQSPDFQSVTPKEKVTITCRASQSIGTNIHWYQQKPDQSPKLLIKYASESISGVPSRFSGSGSGTDFTLTINSLEAEDAATYYCQQNNNWPTTFGAGTKLEIKRTVAAPSVFIFPPSDEQLKSGTASVTCLLNNFYPREAKVQWKVDNALQSGNSQESVTEQDSKDSTYSLVSTLTLSKADYEKHKVYACEVTHQGLSSPVTKSFNRGEC | 0.013 | 0.0259 |  | 
BMX003-010 (humanized Patri-Cetu-Fc) (bispecific antibody) heavy: not shown light 1: not shown light 2: EIVLTQSPDFQSVTPKEKVTITCRASQSIGTNIHWYQQKPDQSPKLLIKYASESISGVPSRFSGSGSGTDFTLTINSLEAEDAATYYCQQNNNWPTTFGAGTKLEIKRTVAAPSVFIFPPSDEQLKSGTASVTCLLNNFYPREAKVQWKVDNALQSGNSQESVTEQDSKDSTYSLVSTLTLSKADYEKHKVYACEVTHQGLSSPVTKSFNRGEC | 0.0155 | 0.0223 |  | 
Patri-Matu-Fc (bispecific antibody) heavy: not shown light 1: not shown light 2: DIQMTQSPSSLSASVGDRVTITCSASSSVTYMYWYQQKPGKAPKLLIYDTSNLASGVPSRFSGSGSGTDYTFTISSLQPEDIATYYCQQWSSHIFTFGQGTKVEIKRTVAAPSVFIFPPSDEQLKSGTASVTCLLNNFYPREAKVQWKVDNALQSGNSQESVTEQDSKDSTYSLVSTLTLSKADYEKHKVYACEVTHQGLSSPVTKSFNRGEC |  |  | 0.55 | 170
